Data on three molecules can be found in patent US20200299380A1 (published 2020).

Assay [1] concerns the target T1, MICA*008 expressed at the cell surface (human, UniProt Q29983 24-297).
T1 construct: also called C1R-MICA*008; C1R-MICA*08
T1 chain: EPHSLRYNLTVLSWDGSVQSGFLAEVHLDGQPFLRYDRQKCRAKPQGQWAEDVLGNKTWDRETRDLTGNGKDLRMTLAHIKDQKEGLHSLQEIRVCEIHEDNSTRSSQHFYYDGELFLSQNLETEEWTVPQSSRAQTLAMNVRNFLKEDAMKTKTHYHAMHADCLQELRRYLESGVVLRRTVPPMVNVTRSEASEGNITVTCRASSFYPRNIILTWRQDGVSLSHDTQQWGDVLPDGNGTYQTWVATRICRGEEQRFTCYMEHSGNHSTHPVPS
The assay is described as follows: flow cytometry on C1R transfectant cells. As to the method: The binding of antibodies obtained from the first, second and third immunization series (including CHG1-M-MIA-19E9, CHG1-M-MIA-9C10, CHG1-M-MIA-6E4, CHG1-M-MIA-20C6, CHG1-M-MIA-16A8, CHG1-M-MIA-12A10, CHG1-M-MIA-10A7, CHG1-M-MIA-18E8, CHG1-M-MIA-10F3, CHG1-M-MIA-15F9 and CHG1-M-MIA-14B4) were tested for binding to MICA-expressing CR1 transfectant cells C1R-MICA*001, C1R-MICA*004, C1R-MICA*007 and C1R-MICA*008 (Pr. A. Steinle, Eberhard-Karls University Tuebingen, Germany) described in Salih et al. (2003) Blood 102(4): […]. Binding was analyzed by flow cytometry.
Cells were harvested and stained in PBS 1×/BSA 0.2%/EDTA 2 mM buffer during 30 minutes at 4° C. using a dose-range of the anti-MICA mAbs. After two washes in staining buffer, cells were stained for 30 min at 4° C. with mouse anti-human IgG1-PE monoclonal antibodies (1/11). After two washes, stainings were acquired on a BD FACS Canto II and analyzed using the FlowJo software.
On the technique in general: In flow cytometry, cells or beads pass a laser one at a time.

Assay [2] has as its target T2, recombinant human MICA extracellular domain recombinant-Fc protein (MICA*019 allele, R&D Systems) (human, UniProt Q29983 24-297).
T2 construct: also called MICA*019-Fc; MICA-Fc; not shown: Fc of the bought fusion protein
T2 chain: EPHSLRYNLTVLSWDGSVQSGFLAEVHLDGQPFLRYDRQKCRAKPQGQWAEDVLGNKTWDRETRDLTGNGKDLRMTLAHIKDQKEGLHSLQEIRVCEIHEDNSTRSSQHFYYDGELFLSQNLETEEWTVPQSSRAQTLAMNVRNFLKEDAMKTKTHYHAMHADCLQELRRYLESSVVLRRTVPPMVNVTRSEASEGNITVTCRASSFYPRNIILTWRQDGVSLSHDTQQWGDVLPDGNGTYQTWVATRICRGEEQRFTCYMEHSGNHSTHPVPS
The assay is described as follows: SPR solution competition experiment (MICA*019-Fc pre-incubated with antibody, NKG2D-Fc chip). Here is the method:
SPR measurements were performed on a Biacore T100 apparatus (Biacore GE Healthcare) at 25° C. In all Biacore experiments HBS-EP+ buffer (Biacore GE Healthcare) served as running buffer, 10 mM NaOH, 500 mM NaCl served as regeneration buffer and sensorgrams were analyzed with Biaevaluation 4.1 and Biacore T100 Evaluation software.
For solution competition experiments, the human NKG2D-Fc (R&D systems) recombinant proteins were covalently immobilized onto a CM5 sensorchip. Soluble human MICA*01-BirA or human MICA*019-Fc (R&D systems) recombinant proteins at a constant concentration of 10 μg/ml were pre-incubated with a 5 to 10 molar equivalent excess of antibodies and injected for 2 minutes at a flow rate of 10 μl/min onto the NKG2D-Fc chip. After each cycle, Sensorchips were regenerated by a five second injection of appropriate regeneration buffer.

Assay [3] addresses T1, MICA*008 expressed at the cell surface. The assay is described as follows: flow cytometry on C1R transfectant cells, 4-parameter logistic fit.

B1: CHG1-M-MIA-6E4 (antibody, V domains shown)
VH: EVQLVESGGALVKPGGSLKLSCAASGFTFSYYAMSWVRQTPEKRLEWVATISRGGNYIYYTDSVKGRFTISRDNAKNTLYLQMTSLRSEDTAMFYCASISDYDGAWLAYWGQGTTLTVSS
VL: DVLMTQTPLSLPVSLGDQASISCRSSQSIIHTNGNTYLEWYLQKPGQSPKLLIYKISNRFSGVPDRFSGSGSGTDFTLKISRVEAEDLGVYYCFQGSHVPWTFGGGTKLEIKR
notes: also called chimeric anti-MICA 6E4
Consider B1, for which the binding result in assay [1] is “binds”.

B2: CHG1-M-MIA-16A8 (antibody, V domains shown)
VH: EVQLVESGGGLVKPGGSLKLSCAASGFTFSRYAMSWVRQTPEKRLEWVATIFSGGSYTYYPDSVKGRFTISRDNANNTLYLQMSSLKAEDTAMYFCARPNWERTFDYWGQGTTLTVSS
VL: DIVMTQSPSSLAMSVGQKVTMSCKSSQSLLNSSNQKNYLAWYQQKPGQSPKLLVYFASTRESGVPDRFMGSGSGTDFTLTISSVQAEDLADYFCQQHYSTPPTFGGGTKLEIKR
notes: also called CHG1-M-MIA2-16A8; chimeric anti-MICA 16A8
As for B2, the binding result in assay [2] is reported as “no binding”.

B3: CHG1-M-MIA-20C6 (antibody, V domains shown)
VH: QITLKESGPGILKPSQTLSLTCSFSGFSLSTSGMGVGWIRQPSGKGLEWLAHIWWDDDKYYNPSLKSQLTISKDTSRNQVFLRITSVDTADTATYYCARRTQGYFDYWGQGTTLTVSS
VL: DIVMTQSPATLSVTPGDRVSLSCRASQSISDYLHWYQQKSHESPRLLIKYASQSISGIPSRFSGSGSGSDFTLSINSVEPEDVGVYYCQNGHSFPWTFGGGTKLEIKR
notes: also called chimeric anti-MICA 20C6
Regarding B3, a half-maximal effect in assay [3] (EC50) was put at 0.13 µg/mL.
